From the supplement of paper PMC10567573

B1: CDS2 (parent)
chain: IHSIALSTFASLIGPFGGFFASGF

Variants of: B1
Experiment: protein stability index of a GFP-peptide fusion (GPS, HEK-293T) (PSI 1-6); higher = more stable
Details: c terminus: a fixed tail appended
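Also: lentivirally expressed fusions sorted by FACS into six bins by GFP to DsRed ratio, PSI derived from sequencing read proportions per bin multiplied by bin number.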

Variant	protein stability index
IHSIALSTGASLIGPFGGFFASGF	2.44
IHSIALSTQASLIGPFGGFFASGF	3.22
IHSIALSTWASLIGPFGGFFASGF	2.81
IHSIALSTSASLIGPFGGFFASGF	3.33
IHSIALSTIASLIGPFGGFFASGF	3.79
IHSIALSTLASLIGPFGGFFASGF	3.88
IHSIALSTCASLIGPFGGFFASGF	2.62
IHSIALSTHASLIGPFGGFFASGF	1.51
IHSIALSTPASLIGPFGGFFASGF	2.63
IHSIALSTNASLIGPFGGFFASGF	2.11
IHSIALSTEASLIGPFGGFFASGF	1.92
IHSIALSTYASLIGPFGGFFASGF	1.62
IHSIALSTFAILIGPFGGFFASGF	3.73
IHSIALSTFAFLIGPFGGFFASGF	3.22
IHSIALSTFAHLIGPFGGFFASGF	2.75
IHSIALSTFACLIGPFGGFFASGF	2.7
IHSIALSTFAGLIGPFGGFFASGF	2.9
IHSIALSTFAWLIGPFGGFFASGF	5.33
IHSIALSTFAVLIGPFGGFFASGF	1.89
IHSIALSTFADLIGPFGGFFASGF	2.9
IHSIALSTFAMLIGPFGGFFASGF	3.71
IHSIALSTFAALIGPFGGFFASGF	2.88
IHSIALSTFAQLIGPFGGFFASGF	3.26
IHSIALSTFALLIGPFGGFFASGF	2.8

Variant	protein stability index
IHSIALSTFANLIGPFGGFFASGF	2.33
IHSIALSTFATLIGPFGGFFASGF	2.57
IHSIALSTFAYLIGPFGGFFASGF	4.15
IHSIALSTFARLIGPFGGFFASGF	2.81
IHSIALSTFAKLIGPFGGFFASGF	3.22
IHSIALSTFAELIGPFGGFFASGF	3.35
IHSIALSTFVSLIGPFGGFFASGF	3.29
IHSIALSTFDSLIGPFGGFFASGF	3.54
IHSIALSTFWSLIGPFGGFFASGF	3.06
IHSIALSTFTSLIGPFGGFFASGF	4.58
IHSIALSTFGSLIGPFGGFFASGF	3.32
IHSIALSTFSSLIGPFGGFFASGF	2.6
IHSIALSTFHSLIGPFGGFFASGF	2.85
IHSIALSTFFSLIGPFGGFFASGF	3.04
IHSIALSTFNSLIGPFGGFFASGF	1.6
IHSIALSTFCSLIGPFGGFFASGF	2.97
IHSIALSTFLSLIGPFGGFFASGF	2.98
IHSIALSTFISLIGPFGGFFASGF	4.24
IHSIALSTFESLIGPFGGFFASGF	3.6
IHSIALSTFPSLIGPFGGFFASGF	2.39
IHSIALSTFKSLIGPFGGFFASGF	1.79
IHSIALSTFMSLIGPFGGFFASGF	3.11
NHSIALSTFASLIGPFGGFFASGF	2.63
CHSIALSTFASLIGPFGGFFASGF	3.03

Variant	protein stability index
PHSIALSTFASLIGPFGGFFASGF	3.96
EHSIALSTFASLIGPFGGFFASGF	4.34
HHSIALSTFASLIGPFGGFFASGF	2.21
KHSIALSTFASLIGPFGGFFASGF	2.65
VHSIALSTFASLIGPFGGFFASGF	2.61
GHSIALSTFASLIGPFGGFFASGF	2.84
SHSIALSTFASLIGPFGGFFASGF	2.57
LHSIALSTFASLIGPFGGFFASGF	2.63
YHSIALSTFASLIGPFGGFFASGF	3.05
WHSIALSTFASLIGPFGGFFASGF	3.6
DHSIALSTFASLIGPFGGFFASGF	1.79
AHSIALSTFASLIGPFGGFFASGF	3.5
FHSIALSTFASLIGPFGGFFASGF	2.15
QHSIALSTFASLIGPFGGFFASGF	1.48
THSIALSTFASLIGPFGGFFASGF	3.44
IHSIARSTFASLIGPFGGFFASGF	1.67
IHSIAASTFASLIGPFGGFFASGF	2.63
IHSIAISTFASLIGPFGGFFASGF	3.38
IHSIATSTFASLIGPFGGFFASGF	1.39
IHSIAVSTFASLIGPFGGFFASGF	3.03
IHSIAKSTFASLIGPFGGFFASGF	3.48
IHSIAYSTFASLIGPFGGFFASGF	3.33
IHSIAFSTFASLIGPFGGFFASGF	2.34
IHSIADSTFASLIGPFGGFFASGF	3.13

Variant	protein stability index
IHSIAQSTFASLIGPFGGFFASGF	2.28
IHSIAMSTFASLIGPFGGFFASGF	4.1
IHSIAWSTFASLIGPFGGFFASGF	2.43
IHSIAESTFASLIGPFGGFFASGF	4.38
IHSIACSTFASLIGPFGGFFASGF	2.06
IHSIAPSTFASLIGPFGGFFASGF	2.23
IHSIAGSTFASLIGPFGGFFASGF	2.54
IHSIANSTFASLIGPFGGFFASGF	2.62
IHYIALSTFASLIGPFGGFFASGF	2.06
IHVIALSTFASLIGPFGGFFASGF	3.02
IHQIALSTFASLIGPFGGFFASGF	2.4
IHNIALSTFASLIGPFGGFFASGF	4.17
IHEIALSTFASLIGPFGGFFASGF	3.44
IHDIALSTFASLIGPFGGFFASGF	3.74
IHTIALSTFASLIGPFGGFFASGF	2.8
IHFIALSTFASLIGPFGGFFASGF	3.44
IHKIALSTFASLIGPFGGFFASGF	3.55
IHPIALSTFASLIGPFGGFFASGF	2.89
IHCIALSTFASLIGPFGGFFASGF	4.47
IHLIALSTFASLIGPFGGFFASGF	4.15
IHIIALSTFASLIGPFGGFFASGF	3.44
IHGIALSTFASLIGPFGGFFASGF	2.49
